Data from patent US20220220200A1 (NANJING IASO BIOTECHNOLOGY, published 2022).

T1: Biotinylated Human BCMA/TNFRSF17 Protein, Fc Tag, Avi Tag (BCMA-hFc-Bio) (human, UniProt Q02223 1-54, biotinylated (Avitag))
T1 construct: Bought protein; also called control antigen BCMA; unrelated antigen BCMA; not shown: Fc tag (hFc) and Avi tag
T1 sequence (looked up): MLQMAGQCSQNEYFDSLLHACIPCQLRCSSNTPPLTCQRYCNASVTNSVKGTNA

B1: #78 scFv phage antibody clone (scFv)
scFv: QAVLTQPPSVSEAPRQRVTISCSGSSSNIGNNAVSWYQQLPGKAPKLLIYYDDLLPSGVSDRFSGSKSGTSASLAISGLQSEDEADYYCAAWDDSLNGWVFGGGTKVTVLGSRGGGGSGGGGSGGGGSLEEVQLVQSGAEVKKPGESLKISCKGSGYSFTSYWIGWVRQMPGKGLEWMGIIYPGDSDTRYSPSFQGQVTISADKSISTAYLQWSSLKASDTAMYYCARLSYSWSSWYWDFWGQGTLVTVSS
notes: The phage coat fusion is not described; also called clone #78; phage #78
B2: #62 scFv phage antibody clone (scFv)
scFv: QSVVTQPPSVSGAPGQRVTISCTGSSSNIGAGYDVHWYQQLPGTAPKLLIYENTNRPSGVPDRFSGSKSGTSASLAITGLQAEDEADYYCQSYDSSLSGWRVFGGGTKLTVLGSRGGGGSGGGGSGGGGSLEMAEVQLVQSGAEVKKPGESLKISCKGSGYSFTNSWIGWVRQMPGKGLEWMGLIYPDDSDTRYSPSFQGQVTISADSAINTAYLQWSSLKASDTAMYYCARQSTYIYGGYYDTWGQGTLVTVSS
notes: The phage coat fusion is not described; also called clone #62; phage #62

Legend:
Streptavidin = molecular target: T2, Streptavidin (UniProt P22629 37-163, limits assumed); experiment: phage ELISA, streptavidin-coated plate
T2 construct: Plate coating in the phage ELISA, tested as a control antigen; also called Strepavidin
T2 sequence (P22629 37-163 limits assumed): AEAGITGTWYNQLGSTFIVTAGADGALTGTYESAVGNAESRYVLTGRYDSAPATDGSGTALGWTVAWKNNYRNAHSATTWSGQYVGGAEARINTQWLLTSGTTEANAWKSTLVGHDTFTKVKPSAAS
Procedure: (§1) In ELISA preliminary screening, the streptavidin-biotin binding allowed the biotinylated target protein (CD19-hFc-Bio) and the control protein (BCMA-hFc-Bio) to be closer to native antigen conformation in the reaction solution. Clones that only bound to CD19-hFc-Bio but not to BCMA-hFc-Bio and streptavidin were considered specific. The FACS preliminary screening was performed using a cell line Raji with high expression of CD19 and Raji-CD19ko with knockout of CD19 molecules, and clones that only bind to Raji cells but not to Raji-CD19ko cells were considered specific. Through the two preliminary screenings based on ELISA and FACS respectively, we could obtain candidate antibodies that can not only bind to the recombinantly expressed CD19 protein but also recognize the native CD19 molecules on the cell surface for further screening.
(§2) Monoclonal antibodies were randomly selected from the enriched phage antibody pool, packaged into phages, and the binding of the monoclonal phage to CD19-hFc-Bio protein and BCMA-hFc-Bio protein was detected by phage ELISA to find CD19-specific phage antibody clones. Control 1 is FMC-63 ([…] anti-human CD19 phage antibody clone); and control 2 is non-CD19-bound scFv phage antibody clone. […]

[1] = molecular target: T1, Biotinylated Human BCMA/TNFRSF17 …; experiment: phage ELISA, biotinylated antigen on streptavidin plate
Procedure: as §1, §2

Binder | binding result (Streptavidin) | binding result [1]
B1 | no binding | no binding
B2 | no binding | no binding
